T1: mouse iRhom2 (Mus musculus, UniProt Q80WQ6)
T1 construct: MEF-DKO-miR2-FL-WT-T7 cells stably expressing mouse iRhom2 full length wild type; expressed in transfected cells; host or cells: immortalized iRhom1/2-/- DKO mouse embryonic fibroblasts, pMSCV retroviral infection
T1 sequence (Q80WQ6 1-827): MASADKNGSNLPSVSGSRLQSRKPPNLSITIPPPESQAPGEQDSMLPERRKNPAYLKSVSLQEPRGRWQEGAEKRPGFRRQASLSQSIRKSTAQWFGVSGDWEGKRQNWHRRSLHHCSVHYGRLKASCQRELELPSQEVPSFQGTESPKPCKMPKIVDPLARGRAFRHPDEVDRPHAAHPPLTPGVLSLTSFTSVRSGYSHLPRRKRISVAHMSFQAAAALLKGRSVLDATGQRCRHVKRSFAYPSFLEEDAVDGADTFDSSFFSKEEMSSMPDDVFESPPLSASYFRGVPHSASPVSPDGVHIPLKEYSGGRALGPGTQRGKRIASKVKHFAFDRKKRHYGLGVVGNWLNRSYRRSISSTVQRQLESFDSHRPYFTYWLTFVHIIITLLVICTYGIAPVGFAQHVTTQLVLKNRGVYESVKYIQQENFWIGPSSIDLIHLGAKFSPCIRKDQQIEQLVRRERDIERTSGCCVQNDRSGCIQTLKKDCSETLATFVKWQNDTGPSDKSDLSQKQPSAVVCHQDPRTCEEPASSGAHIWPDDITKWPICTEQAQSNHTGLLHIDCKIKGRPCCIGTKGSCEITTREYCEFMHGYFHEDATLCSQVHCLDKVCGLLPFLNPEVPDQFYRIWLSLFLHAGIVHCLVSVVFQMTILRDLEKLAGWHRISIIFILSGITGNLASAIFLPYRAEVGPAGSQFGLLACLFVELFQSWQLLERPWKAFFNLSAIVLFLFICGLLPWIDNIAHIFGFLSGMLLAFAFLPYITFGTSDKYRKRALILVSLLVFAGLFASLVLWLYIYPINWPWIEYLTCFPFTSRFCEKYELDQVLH

B1: 23-B-04: humanized antibody binding human iRhom2; HCVD SEQ ID NO 25, LCVD SEQ ID NO 29 (antibody, V domains shown)
VH: QVTLRESGPALVKPTQTLTLTCTFSGFSLSTFGMGVGWIRQPPGKALEWLAHIWWDDEKYYNSALKSRLTISKDTSKNQVVLTITNMDPVDTATYYCARISNYGSNYWYFNVWGQGTLVTVSS
VL: AIQLTQSPSSLSASVGDRVTITCRASSSVSYMYWYQQKPGKAPKVLIYDTSNLASGVPSRFSGSGSGTDYTLTISSLQPEDFATYYCQQWNAYPLTFGQGTKLEIK
modifications: antibody sequences
B2: 42-B-02: humanized antibody binding human iRhom2; HCVD SEQ ID NO 33, LCVD SEQ ID NO 37 (antibody, V domains shown)
VH: B1 VH with M34R, S101Q, N111D
VL: B1 VL with S28R, V29I, Y33F, A92S
modifications: antibody sequences
B3: 42-B-04: humanized antibody binding human iRhom2; HCVD SEQ ID NO 41, LCVD SEQ ID NO 45 (antibody, V domains shown)
VH: B1 VH with M34R, S101Q, N111D
VL: B1 VL with S28R, V29I, Y33F
modifications: antibody sequences
B4: 16-B-03: humanized antibody binding human iRhom2; HCVD SEQ ID NO 1, LCVD SEQ ID NO 5 (antibody, V domains shown)
VH: QVTLRESGPALVKPTQTLTLTCTFSGFSLSTFALGVGWIRQPPGKALEWLAHIWWDDDKYYNPALKSRLTISKDTSKNQVVLTITNMDPVDTATYYCARITTYYYGMDYWGQGTLVTVSS
VL: EIVMTQSPDFQSVTPKEKVTITCRASQSIGNHLHWYQQKPDASPKLLIKYASQSISGVPSRFSGSGSGTDFTLTINSLEAEDAATYFCQQSYQWPLTFGQGTKLEIK
modifications: antibody sequences
B5: 16-B-05: humanized antibody binding human iRhom2; HCVD SEQ ID NO 9, LCVD SEQ ID NO 13 (antibody, V domains shown)
VH: B4 VH with D57E
VL: B4 VL with Q93N
modifications: antibody sequences
B6: 16-B-07: humanized antibody binding human iRhom2; HCVD SEQ ID NO 17, LCVD SEQ ID NO 21 (antibody, V domains shown)
VH: B4 VH with D57E
VL: B4 VL
modifications: antibody sequences

Results on six molecules are retold here after patent publication US12404345B2, “Humanized antibodies against iRHOM2” (SCIRHOM GMBH, priority 2021, dated 2025).

Numbering of substitutions follows the chain as printed.

The target of the experiment is T1, mouse iRhom2. Put plainly: FACS mouse cross-reactivity on MEF-DKO-miR2-FL-WT-T7 cells. To be noted: antibody at 3 μg/ml. It is filed as binding. An excerpt:
Next, immortalized iRhom1/2−/− DKO MEFs were reconstituted with a tagged form of human iRhom2 to test target recognition of humanized antibodies of the invention. Additionally, iRhom1/2−/− DKO MEFs stably expressing a tagged form of mouse iRhom2 were generated in order to determine cross-reactivity of the humanized antibodies 16-B-03, 16-B-05, 16-B-07, 23-B-04, 42-B-02 and 42-B-04 of the invention with the mouse orthologue of iRhom2.
In brief, on day 1, Phoenix-ECO cells (American Type Culture Collection, USA) were seeded on 6-well tissue culture plates (Greiner, Germany) in standard growth medium at 8×10^5 cells per well and kept overnight at 37° C., 5% CO2. On day 2, the medium was replaced by fresh medium supplemented with chloroquine (Sigma-Aldrich, USA) at a final concentration of 25 μM. Applying the calcium phosphate method, cells were transfected with 2 μg/ml of pMSCV (Clontech, USA) empty vector, pMSCV-hiR2-FL-WT-T7 encoding human iRhom2 full length wild type C-terminally tagged with 3 consecutive copies of the T7 epitope (MASMTGGQQMG) or pMSCV-miR2-FL-WT-T7 encoding mouse iRhom2 full length wild type C-terminally tagged with 3 consecutive copies of the T7 epitope, and were kept at 37° C., 5% CO2. After 7 hours, the transfections were stopped by replacing cell supernatants with standard growth medium lacking chloroquine, and cells were incubated at 37° C., 5% CO2 to allow virus production overnight. In parallel, immortalized iRhom1/2−/− DKO MEFs as target cells for retroviral infection were seeded on 6-well tissue culture plates (Greiner, Germany) in standard growth medium at 1×10^5 cells per well and were also kept overnight at 37° C., 5% CO2. On day 3, the supernatants of Phoenix-ECO cells releasing pMSCV, pMSCV-hiR2-FL-WT-T7 or pMSCV-miR2-FL-WT-T7 ecotrophic virus were collected, filtered with 0.45 μm CA filters, and supplemented with 4 μg/ml of polybrene (Sigma-Aldrich, USA). Upon removal of medium from the immortalized iRhom1/2−/− DKO MEFs, the virus containing supernatants were added to the target cells for 4 hours at 37° C., 5% CO2 for first infection. Simultaneously, Phoenix-ECO cells were re-incubated with fresh medium, which, after another 4 hours, was filtered and used for the second infection of the respective target cell populations, again in the presence of 4 μg/ml of polybrene. Likewise, a third, but overnight infection cycle was performed. On day 4, virus containing cell supernatants were replaced by fresh standard growth medium. From day 5 onwards, cells were grown in the presence of 2 mg/ml of geneticin (G418, Thermo Fisher Scientific, USA) for the selection of immortalized MEF-DKO-EV control cells stably infected with pMSCV empty vector, MEF-DKO-hiR2-FL-WT-T7 cells stably expressing human iRhom2 full length wild type C-terminally tagged with 3 consecutive copies of the T7 epitope, and MEF-DKO-miR2-FL-WT-T7 cells stably expressing mouse iRhom2 full length wild type C-terminally tagged with 3 consecutive copies of the T7 epitope. Upon propagation, cells were stocked for future usage.
In brief, immortalized MEF-DKO-EV control cells, MEF-DKO-hiR2-FL-WT-T7 cells and MEF-DKO-miR2-FL-WT-T7 cells were harvested with 10 mM EDTA in PBS, washed and resuspended in FACS buffer (PBS, 3% FBS, 0.05% sodium azide), and seeded in Nunc U-bottom 96-well plates (Thermo Fisher Scientific, USA) at approximately 3×10^5 cells per well. To pellet cells and remove supernatants, the plates were centrifuged at 1,500 rpm and 4° C. for 3 minutes. For primary staining, cells were resuspended in 100 μl per well of either FACS buffer alone (controls), mouse monoclonal anti-T7 IgG (Merck Millipore, USA) at 3 μg/ml FACS buffer or the humanized antibodies 16-B-03, 16-B-05, 16-B-07, 23-B-04, 42-B-02 and 42-B-04 of the invention also at 3 μg/ml FACS buffer and incubated on ice for 1 hour. Afterwards, plates were centrifuged at 1,500 rpm and 4° C. for 3 minutes and washed twice with 200 μl per well of FACS buffer. […]
With B1, the “binding to mouse iRhom2 on MEF-DKO-miR2-FL-WT-T7 cells (mouse cross-reactivity)” value (shortened to “binding to mouse iRhom2”) is reported as “none of these humanized antibodies of the invention are cross-reactive”.

Take B2: the “binding to mouse iRhom2” value was “none of these humanized antibodies of the invention are cross-reactive”.

Consider B3, for which the “binding to mouse iRhom2” value is listed as “none of these humanized antibodies of the invention are cross-reactive”. The result for B4 reads “no significant binding”.

For B5, the “binding to mouse iRhom2” value is listed as “none of these humanized antibodies of the invention are cross-reactive”. On to B6, for which the “binding to mouse iRhom2” value is “none of these humanized antibodies of the invention are cross-reactive”.
